{
  "source": "the domain aggregation screens of Martell et al. (2025)",
  "data": [
    {"test": "soluble fraction after stress (log2 fold change); higher = more stays soluble; pooled small domains, quantitative proteomics", "settings": "stress: 50 degC", "outline": "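Custom libraries of small protein domains were pooled and measured in a high-throughput format, with quantitative proteomics as the read-out. Each library was stressed at 50°C. The value is the log2 fold change in the amount of each protein that stays soluble after stress, used as a measure of aggregation propensity; higher values mean more of the protein stays soluble.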", "values": [
      {"sequence": "HMNIWNEWAFKKWIESDEYTGPDMTDFGHRTLVDEEFSKQYKEQMSLFKERVLTDDEFSAKYGDL", "soluble fraction (log2)": -0.66},
      {"sequence": "HMAVFSKKQIFDTAFALFESKGLEAITARNLGKALSSSPAPIYAHYSSITELKNELISVAKDR", "soluble fraction (log2)": -2.25},
      {"sequence": "HMNMGKRFKELRKERKFTQQQLADRIGLAPSAISSYESGARYPSYDVLIKYSKIFHVTTDYLLG", "soluble fraction (log2)": -2.81},
      {"sequence": "HMSLSNMIGKNIQWTHVTKTKDAEGNPKTNSETFAGNVRGVKVLNGKPMVVAQDAKGKLHEVEVSEIEAIA", "soluble fraction (log2)": 0.234},
      {"sequence": "HMSNRIDKIKLNHWLNIRKTSLDVLNNLLSKHLNHKINFENLENLDEQAIEKISEVLSIPKNKLLINDDVP", "soluble fraction (log2)": 0.16},
      {"sequence": "HMVTTLLIINVAGKVKNPGVYQLPPGSRVVDALEAAGQQLKGVDISDINLARVLVDGEQILIGSN", "soluble fraction (log2)": -1.86},
      {"sequence": "HMELNELTSRELMVAEQVARGASNREISEALSISERTVKAHLSAAFEKLGVRDRVQLALAMNNIPT", "soluble fraction (log2)": -0.0086},
      {"sequence": "HMVSLPSPLAGKVVSLTVQAGQEVKEGDEIMVLEAMKMNTQVHAPSSGRILALRVQPGDQVEEGQTLVTMG", "soluble fraction (log2)": 0.0826},
      {"sequence": "HMNEDDQLLKVLLAEPLRLEELYNLDLKPQGPYNLQTWIMVHLTELERDGLIARFPDGRYGPAR", "soluble fraction (log2)": -1.36},
      {"sequence": "HMKLEEITIIVPSLRLDNFVSDLARTSRSKAVQIIDSERVFINGQNETKASKQVKLGDVITSA", "soluble fraction (log2)": -0.277},
      {"sequence": "HMGGEPKALLFAGVETREMAEITQRLEAADIPYEIREDGGSIYVARSEVFNARMMLSADGLPS", "soluble fraction (log2)": -0.109},
      {"sequence": "HMGIAKLLTEQEYKIALLAAERRTNAMIAEEMNLTENTVKTHLKHIFDKVGIAGNAKNKRHLLADMMNSER", "soluble fraction (log2)": -0.277},
      {"sequence": "HMRTNVDISPKILEWVLSQVRNRTTNDVIETIQIWIKGEKPPTFNQVEKISKATGVPLGYFFLKTPPVED", "soluble fraction (log2)": -0.805},
      {"sequence": "HMKVEFDAMDKRILELMAKEYDTVLMARHLPLTPIVIDVRKKRIREVLNLPDATDAEIVIEAKEKDII", "soluble fraction (log2)": -0.322},
      {"sequence": "HMKYKKYKLLKDLPTFKAGQLAYISKTGNLIAGTPENQKTTETGLIIMIYHETTLKKFPNILTEWFEEIE", "soluble fraction (log2)": -2.71},
      {"sequence": "HMKDLTIRQQQFLNYIKDHLSLTGFPPTRSDIANEMGFKSPNAAEDHLRALARKGAIEIVPGTSRGIRLP", "soluble fraction (log2)": -0.24},
      {"sequence": "HMPKAKASARNDTRTRLLTIGTEVLSQKGFASTGVEEILSVAGVPKGAFYYYFESKAAFGLAVIENYE", "soluble fraction (log2)": 0.0027},
      {"sequence": "HMSLPTYVQISEAIARRITAGQWLDGERLPPERTMAAEFGVAVGTLRKALSRLQDQKLLRRLQGSGNYINI", "soluble fraction (log2)": -1.57},
      {"sequence": "HMVLSVRDRMVQILDQVKTGEYKRIEDFFSADEGRTGFVVSFVAILELVKGGLLTITQSKNLAPIYVRLPN", "soluble fraction (log2)": -0.19},
      {"sequence": "HMEISPGDVFKQLPGIGDDLSRRVVESLGIQSLEELESAAHDGRLEQVEGFGERRVQMVRAVLTGMLS", "soluble fraction (log2)": -0.0423},
      {"sequence": "HMNANTILNSQRILTQLGFNPGPIDGAFGAKTKGALNAFYTSIGKSYDGLLDSNELVELQKALDVSGLKN", "soluble fraction (log2)": -0.295},
      {"sequence": "HMQVPFGFQRNPSTGTLEEKAEEQLIINQVLSLKNSGIGVSEISKRLGELSVSRIYRIINTAKKNAS", "soluble fraction (log2)": -0.366},
      {"sequence": "HMFTLDIGTIIRNRRLELNLTLEEIGNAVGVSKSTVQKWENGFISNMKRDKISALAKVLNINPVTLITGEY", "soluble fraction (log2)": -1.12},
      {"sequence": "HMDSPVEEWANRGLAYDPSLVTETMAKLYAKQGQIGLARKAFKRLALIYPEKSVYFAFQLKKLSNN", "soluble fraction (log2)": -1.63},
      {"sequence": "HMGVNEGVNKLFKTIQETPGKRMPYYALATDVPEKTIERWLKQLREEGKIEFKGSAKTGGYFVIDK", "soluble fraction (log2)": 0.0649},
      {"sequence": "HMGRQVTVPNVTGMLVEEARAAISEAELWVDSPRAVQGEVTRQEPARGERLSPGQEVRIYTES", "soluble fraction (log2)": 0.31},
      {"sequence": "HMSSWMTKDGKIKPISKWAGVPMTSQQQADYAAGKVVELTNIPDKQGQLNTVYLKFNPEKQRPTTSLNDPR", "soluble fraction (log2)": 0.134},
      {"sequence": "HMKVIAEESYRILVDAIEKLPPQMKSIMQLALEGKSNPEIAETLNISGETVHSQKKIAYRKLRVYLKD", "soluble fraction (log2)": -1.17},
      {"sequence": "HMFPATAPQLKAVHAILGKQGISDELDKLARVNEWLVGLNKEPVAAISELDKHTTSGLIDHLQGELNE", "soluble fraction (log2)": 0.282},
      {"sequence": "HMGAGLDDLVRKSLHNAGLKADDNVVSWISGNLGSDRMVSRMELEKLVLFVAGQSEITLEDAQAVIGD", "soluble fraction (log2)": -0.305},
      {"sequence": "HMEEHSLRKQEMLRIIEALEQLTPKEKTVVVLYYFKGVLFKDIAMLLDVTEGRISQLHTAAMGRLKKLMD", "soluble fraction (log2)": -0.0471},
      {"sequence": "HMGPIITKTYNLSYATARDVNDIIKSKKSARGDIVIDTRTNSLIVSDVQEKIDLIDEIVATL", "soluble fraction (log2)": -0.27},
      {"sequence": "HMREKLKEYVHLLFAGTVGKEDMEQEILQNTLDRFDDWVARGFSEEDAYRKAVSGIGDIDALLG", "soluble fraction (log2)": -0.288},
      {"sequence": "HMDSEEVYQMTKHKMDAAQISVAKRIHINLVLVKLLELHHLGYDLRHYHAQHHAFIKRLNLPEYFRFD", "soluble fraction (log2)": -1.66},
      {"sequence": "HMDEPGTGFKWREDVLLRVMEANGIDTSHRDDFVRHAVKFDNDDNLYLKKAEIEDAAAAWVSEHS", "soluble fraction (log2)": 0.0272},
      {"sequence": "HMKYSYAELTKLQEQIAQDRNAPLTVPNALGIGLDERNNVIEITVNIADEAAAKAYYLQKYGDRISLKTTD", "soluble fraction (log2)": 0.117},
      {"sequence": "HMSQLLHELLAHVLKDRIISGEWPAGSRIMSEHALQERYGVSRGTVRRALAQLVQEGLLVQRKGKGTFVTR", "soluble fraction (log2)": -1.65}
    ]}
  ]
}
